Measured values published in the supplement of paper PMC10567573.

B1: ACBD3 (parent)
chain: YVASHKIEKEEQEKKRKEEEERRR
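Also: lentivirally expressed fusions sorted by FACS into six bins by GFP to DsRed ratio, PSI derived from sequencing read proportions per bin multiplied by bin number.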

Variants of: B1
Assay: protein stability index of a GFP-peptide fusion (GPS, HEK-293T) (PSI 1-6); higher = more stable
Conditions: c terminus: a fixed tail appended
Variant YVASHKIEKEEQEKKRKEELERRR [E20L] has a protein stability index of 1.71.
With YVASHKIEKEEQEKKRKEEMERRR [E20M] the protein stability index was 2.48.
Variant YVASHKIEKEEQEKKRKEETERRR [E20T] has a protein stability index of 2.57.
In the case of YVASHKIEKEEQEKKRKEEPERRR [E20P], the protein stability index is reported as 1.98.
In the case of YVASHKIEKEEQEKKRKEEAERRR [E20A], the protein stability index is reported as 2.81.
In the case of YVASHKIEKEEQEKKRKEEDERRR [E20D], the protein stability index is reported as 2.63.
For YVASHKIEKEEQEKKRKEESERRR [E20S], the protein stability index was 2.62.
In the case of YVASHKIEKEEQEKKRKEENERRR [E20N], the protein stability index is reported as 2.56.
Work on YVASHKIEKEEQEKKRKEEVERRR [E20V] yielded a protein stability index of 1.82.
Work on YVASHKIEKEEQEKKRKEECERRR [E20C] yielded a protein stability index of 3.17.
Work on YVASHKIEKEEQEKKRKEEQERRR [E20Q] yielded a protein stability index of 2.36.
YVASHKIEKEEQEKKRKEEIERRR [E20I] showed a protein stability index of 2.58.
With YVASHKIEKEEQEKKRKEEKERRR [E20K] the protein stability index was 2.83.
In the case of YVASHKIEKEEQEKKRKEEHERRR [E20H], the protein stability index is reported as 2.39.
In the case of YVASHKIEKEEQEKKRKEEYERRR [E20Y], the protein stability index is reported as 1.58.
For YVASHKIEKEEQEKKRKEEGERRR [E20G], the protein stability index was 1.96.
Work on YVASHKIEKEEQEKKRKEEFERRR [E20F] yielded a protein stability index of 2.5.
In the case of YVASHKIEKEEQEKKRKEERERRR [E20R], the protein stability index is reported as 1.91.
Variant YVASHKIEKEEQEKKRKWEEERRR [E18W] has a protein stability index of 3.53.
For YVASHKIEKEEQEKKRKNEEERRR [E18N], the protein stability index was 1.85.
Work on YVASHKIEKEEQEKKRKKEEERRR [E18K] yielded a protein stability index of 2.05.
Variant YVASHKIEKEEQEKKRKREEERRR [E18R] has a protein stability index of 2.26.
YVASHKIEKEEQEKKRKVEEERRR [E18V] gave a protein stability index of 1.95.
In the case of YVASHKIEKEEQEKKRKMEEERRR [E18M], the protein stability index is reported as 2.46.
With YVASHKIEKEEQEKKRKQEEERRR [E18Q] the protein stability index was 2.43.
Work on YVASHKIEKEEQEKKRKCEEERRR [E18C] yielded a protein stability index of 2.12.
Work on YVASHKIEKEEQEKKRKPEEERRR [E18P] yielded a protein stability index of 2.25.
YVASHKIEKEEQEKKRKSEEERRR [E18S] showed a protein stability index of 2.22.
Work on YVASHKIEKEEQEKKRKTEEERRR [E18T] yielded a protein stability index of 2.41.
Work on YVASHKIEKEEQEKKRKIEEERRR [E18I] yielded a protein stability index of 2.42.
Work on YVASHKIEKEEQEKKRKHEEERRR [E18H] yielded a protein stability index of 1.6.
For YVASHKIEKEEQEKKRKAEEERRR [E18A], the protein stability index was 3.07.
Work on YVASHKIEKEEQEKKRKDEEERRR [E18D] yielded a protein stability index of 2.38.
With YVASHKIEKEEQEKKRKLEEERRR [E18L] the protein stability index was 2.16.
Variant YVASHKIEKEEQEKKRKYEEERRR [E18Y] has a protein stability index of 1.94.
Work on YVASHKIEKEEQEKKRKEEEERRN [R24N] yielded a protein stability index of 3.67.
For YVASHKIEKEEQEKKRKEEEERRS [R24S], the protein stability index was 2.7.
In the case of YVASHKIEKEEQEKKRKEEEERRL [R24L], the protein stability index is reported as 2.75.
For YVASHKIEKEEQEKKRKEEEERRV [R24V], the protein stability index was 3.46.
YVASHKIEKEEQEKKRKEEEERRE [R24E] gave a protein stability index of 2.19.
Variant YVASHKIEKEEQEKKRKEEEERRQ [R24Q] has a protein stability index of 3.12.
With YVASHKIEKEEQEKKRKEEEERRF [R24F] the protein stability index was 2.85.
Variant YVASHKIEKEEQEKKRKEEEERRW [R24W] has a protein stability index of 2.63.
Variant YVASHKIEKEEQEKKRKEEEERRY [R24Y] has a protein stability index of 2.42.
For YVASHKIEKEEQEKKRKEEEERRH [R24H], the protein stability index was 3.01.
With YVASHKIEKEEQEKKRKEEEERRI [R24I] the protein stability index was 2.52.
In the case of YVASHKIEKEEQEKKRKEEEERRT [R24T], the protein stability index is reported as 2.27.
In the case of YVASHKIEKEEQEKKRKEEEERRD [R24D], the protein stability index is reported as 3.35.
For YVASHKIEKEEQEKKRKEEEERRK [R24K], the protein stability index was 2.65.
YVASHKIEKEEQEKKRKEEEERRA [R24A] showed a protein stability index of 2.94.
In the case of YVASHKIEKEEQEKKRKEEEERRP [R24P], the protein stability index is reported as 2.04.
YVASHKIEKEEQEKKRKEEEERRC [R24C] gave a protein stability index of 2.83.
YVASHKIEKEEQEKKRKEEEERRM [R24M] showed a protein stability index of 2.65.
With YVASHKIEKEEQEKKRKEEEERRG [R24G] the protein stability index was 2.54.
In the case of YVASHKIEKEEQEKKRREEEERRR [K17R], the protein stability index is reported as 3.32.
With YVASHKIEKEEQEKKRWEEEERRR [K17W] the protein stability index was 1.84.
In the case of YVASHKIEKEEQEKKRAEEEERRR [K17A], the protein stability index is reported as 2.88.
YVASHKIEKEEQEKKRPEEEERRR [K17P] gave a protein stability index of 3.01.
YVASHKIEKEEQEKKRHEEEERRR [K17H] showed a protein stability index of 2.74.
YVASHKIEKEEQEKKRGEEEERRR [K17G] gave a protein stability index of 3.79.
With YVASHKIEKEEQEKKRSEEEERRR [K17S] the protein stability index was 3.09.
Variant YVASHKIEKEEQEKKRMEEEERRR [K17M] has a protein stability index of 2.45.
For YVASHKIEKEEQEKKRIEEEERRR [K17I], the protein stability index was 2.35.
In the case of YVASHKIEKEEQEKKRQEEEERRR [K17Q], the protein stability index is reported as 2.07.
Work on YVASHKIEKEEQEKKRDEEEERRR [K17D] yielded a protein stability index of 2.77.
Variant YVASHKIEKEEQEKKRYEEEERRR [K17Y] has a protein stability index of 2.06.
Work on YVASHKIEKEEQEKKREEEEERRR [K17E] yielded a protein stability index of 2.93.
In the case of YVASHKIEKEEQEKKRNEEEERRR [K17N], the protein stability index is reported as 2.99.
Variant YVASHKIEKEEQEKKRFEEEERRR [K17F] has a protein stability index of 2.32.
Variant YVASHKIEKEEQEKKRLEEEERRR [K17L] has a protein stability index of 3.14.
For YVASHKIEKEEQEKKRCEEEERRR [K17C], the protein stability index was 2.41.
Work on YVASHKIEKEEQEKKRVEEEERRR [K17V] yielded a protein stability index of 2.9.
Work on YVASHKIEKEEQEKKRTEEEERRR [K17T] yielded a protein stability index of 2.35.
YVASHKIEKEEQEKKRKEEEEMRR [R22M] showed a protein stability index of 2.76.
With YVASHKIEKEEQEKKRKEEEEIRR [R22I] the protein stability index was 3.59.
With YVASHKIEKEEQEKKRKEEEEWRR [R22W] the protein stability index was 2.28.
With YVASHKIEKEEQEKKRKEEEEHRR [R22H] the protein stability index was 2.42.
For YVASHKIEKEEQEKKRKEEEENRR [R22N], the protein stability index was 3.14.
With YVASHKIEKEEQEKKRKEEEEPRR [R22P] the protein stability index was 2.72.
With YVASHKIEKEEQEKKRKEEEEERR [R22E] the protein stability index was 3.02.
Variant YVASHKIEKEEQEKKRKEEEEVRR [R22V] has a protein stability index of 2.89.
With YVASHKIEKEEQEKKRKEEEELRR [R22L] the protein stability index was 1.89.
Variant YVASHKIEKEEQEKKRKEEEECRR [R22C] has a protein stability index of 2.69.
Work on YVASHKIEKEEQEKKRKEEEEQRR [R22Q] yielded a protein stability index of 3.11.
For YVASHKIEKEEQEKKRKEEEEARR [R22A], the protein stability index was 2.45.
With YVASHKIEKEEQEKKRKEEEEGRR [R22G] the protein stability index was 2.68.
In the case of YVASHKIEKEEQEKKRKEEEEFRR [R22F], the protein stability index is reported as 2.5.
YVASHKIEKEEQEKKRKEEEESRR [R22S] showed a protein stability index of 2.99.
For YVASHKIEKEEQEKKRKEEEEDRR [R22D], the protein stability index was 3.24.
With YVASHKIEKEEQEKKRKEEEEYRR [R22Y] the protein stability index was 2.87.
Variant YVASHKIEKEEQEKKRKEEEEKRR [R22K] has a protein stability index of 2.69.
With YVASHKIEKEEQEKKRKEEEETRR [R22T] the protein stability index was 3.28.
In the case of YVASHKIEKEEQEKKRKEEEERHR [R23H], the protein stability index is reported as 2.29.
YVASHKIEKEEQEKKRKEEEERPR [R23P] showed a protein stability index of 2.46.
